{
  "source": "patent US20090226437A1",
  "about": "(Genentech, published 2009)",
  "molecules": {"B1": {"name": "Fib504K-RF graft (Fib504K graft in the RF acceptor framework), Fab (Fab, V domains shown)", "VH": "EVQLVESGGGLVQPGGSLRLSCAASGFFITNNYWGWVRQAPGKGLEWVGYISYSGSTSYNPSLKSRFTISRDTSKNTFYLQMNSLRAEDTAVYYCAMTGSSGYFDFWGQGTLVTVSS", "VL": "DIQMTQSPSSLSASVGDRVTITCRASESVDTYLHWYQQKPGKAPKLLIKYASQSISGVPSRFSGSGSGTDFTLTISSLQPEDFATYYCQQGNSLPNTFGQGTKVEIKR", "notes": "number not given; also called hu504K-RF graft"}, "B2": {"name": "Fib504-RF (Fib504 graft in the RF acceptor framework), Fab displayed on phage (Fab, name in Kabat numbering, V domains shown)", "VH": "B1 VH", "VL": "B1 VL with K49Y", "notes": "It is built from the Fib504 graft chains with the RF framework changes; Tested as Fab on phage; also called hu504-RF"}, "B3": {"name": "Variant hu504.16, Fab (Fab, name in Kabat numbering, V domains shown)", "VH": "B1 VH", "VL": "B1 VL with Y32L", "notes": "Clone from the Fib504K-RF library with an HVR-L1 change; Tested as Fab; also called Variant 504.16"}, "B4": {"name": "Variant hu504.5, Fab (Fab, name in Kabat numbering, V domains shown)", "VH": "B1 VH", "VL": "B1 VL with T31S, Y32L", "notes": "Tested as Fab; also called Variant 504.5"}, "B5": {"name": "Fib504 graft (direct HVR graft of rat Fib504 into the human acceptor framework), Fab displayed on phage (Fab, V domains shown)", "VH": "B1 VH with R71A, F78A", "VL": "B1 VL with K49Y", "notes": "Tested as monovalent Fab-g3 on phage (VH-CH1 fused to truncated P3); also called hu504 graft; humanized504 graft"}, "B6": {"name": "Variant hu504.32, Fab (Fab, V domains shown)", "VH": "B1 VH", "VL": "B1 VL with T31D, Y32L", "notes": "T31D and Y32L in the light chain of the hu504 Kgraft; Tested as Fab; also called Variant 504.32; humanized variant 504.32"}, "B7": {"name": "Fib504 Kgraft (HVR graft that also includes VL position 49K), Fab displayed on phage (Fab, V domains shown)", "VH": "B1 VH with R71A, F78A", "VL": "B1 VL", "notes": "Tested as Fab on phage; also called hu504 Kgraft; hu504K graft"}, "B8": {"name": "chimeric Fib504 Fab (Fab, V domains shown)", "VH": "EVQLQESGPGLVKPSQSLSLTCSVTGFFITNNYWGWIRKFPGNKMEWMGYISYSGSTSYNPSLKSRISITRDTSKNQFFLQLNSVTTEDTATYYCAMTGSSGYFDFWGPGTMVTVSS", "VL": "DVVMTQSPATLSVTPGERISLSCRASESVDTYLHWYQQKPNESPRLLIKYASQSISGIPSRFSGSGSGTDFTLSINGVELEDLSIYYCQQGNSLPNTFGAGTKLELKR", "notes": "Rat Fib504 variable domains in a chimeric Fab; the constant domains are not specified"}},
  "key": {"[1]": {"target": "alphaEbeta7 on alphaEbeta7-transfected 293 cells (human) (UniProt P38570)", "sequence (P38570 19-1179, chain 1 of 2)": "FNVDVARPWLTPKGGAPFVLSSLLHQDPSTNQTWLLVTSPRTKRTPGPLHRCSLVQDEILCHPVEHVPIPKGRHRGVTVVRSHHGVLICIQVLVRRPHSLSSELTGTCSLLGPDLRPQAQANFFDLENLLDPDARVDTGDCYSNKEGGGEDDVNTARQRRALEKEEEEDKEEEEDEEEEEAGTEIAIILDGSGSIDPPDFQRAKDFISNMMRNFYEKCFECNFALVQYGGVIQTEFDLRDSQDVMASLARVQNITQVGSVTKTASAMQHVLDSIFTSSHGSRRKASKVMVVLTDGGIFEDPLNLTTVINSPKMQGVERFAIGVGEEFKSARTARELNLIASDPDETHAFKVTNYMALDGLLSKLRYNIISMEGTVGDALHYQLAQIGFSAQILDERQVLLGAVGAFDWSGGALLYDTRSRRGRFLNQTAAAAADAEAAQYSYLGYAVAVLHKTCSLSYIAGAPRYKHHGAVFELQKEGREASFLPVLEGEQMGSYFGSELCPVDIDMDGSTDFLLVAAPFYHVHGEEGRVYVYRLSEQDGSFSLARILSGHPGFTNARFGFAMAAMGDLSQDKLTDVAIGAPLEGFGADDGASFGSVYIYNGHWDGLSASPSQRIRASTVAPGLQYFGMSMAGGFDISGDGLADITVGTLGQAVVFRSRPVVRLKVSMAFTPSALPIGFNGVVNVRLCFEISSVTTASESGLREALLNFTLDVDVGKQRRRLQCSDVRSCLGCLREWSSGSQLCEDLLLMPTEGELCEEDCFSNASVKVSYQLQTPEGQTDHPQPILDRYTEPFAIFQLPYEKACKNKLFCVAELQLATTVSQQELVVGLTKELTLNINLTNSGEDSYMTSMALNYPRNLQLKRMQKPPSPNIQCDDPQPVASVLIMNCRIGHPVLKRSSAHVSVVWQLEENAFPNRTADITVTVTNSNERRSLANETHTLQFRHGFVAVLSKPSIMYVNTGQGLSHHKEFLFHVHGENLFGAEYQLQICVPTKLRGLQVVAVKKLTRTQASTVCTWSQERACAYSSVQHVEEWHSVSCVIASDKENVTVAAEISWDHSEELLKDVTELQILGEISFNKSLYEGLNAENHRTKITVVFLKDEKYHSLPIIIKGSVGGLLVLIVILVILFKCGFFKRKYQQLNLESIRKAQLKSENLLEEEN", "sequence (P26010 20-798, chain 2 of 2, further chain)": "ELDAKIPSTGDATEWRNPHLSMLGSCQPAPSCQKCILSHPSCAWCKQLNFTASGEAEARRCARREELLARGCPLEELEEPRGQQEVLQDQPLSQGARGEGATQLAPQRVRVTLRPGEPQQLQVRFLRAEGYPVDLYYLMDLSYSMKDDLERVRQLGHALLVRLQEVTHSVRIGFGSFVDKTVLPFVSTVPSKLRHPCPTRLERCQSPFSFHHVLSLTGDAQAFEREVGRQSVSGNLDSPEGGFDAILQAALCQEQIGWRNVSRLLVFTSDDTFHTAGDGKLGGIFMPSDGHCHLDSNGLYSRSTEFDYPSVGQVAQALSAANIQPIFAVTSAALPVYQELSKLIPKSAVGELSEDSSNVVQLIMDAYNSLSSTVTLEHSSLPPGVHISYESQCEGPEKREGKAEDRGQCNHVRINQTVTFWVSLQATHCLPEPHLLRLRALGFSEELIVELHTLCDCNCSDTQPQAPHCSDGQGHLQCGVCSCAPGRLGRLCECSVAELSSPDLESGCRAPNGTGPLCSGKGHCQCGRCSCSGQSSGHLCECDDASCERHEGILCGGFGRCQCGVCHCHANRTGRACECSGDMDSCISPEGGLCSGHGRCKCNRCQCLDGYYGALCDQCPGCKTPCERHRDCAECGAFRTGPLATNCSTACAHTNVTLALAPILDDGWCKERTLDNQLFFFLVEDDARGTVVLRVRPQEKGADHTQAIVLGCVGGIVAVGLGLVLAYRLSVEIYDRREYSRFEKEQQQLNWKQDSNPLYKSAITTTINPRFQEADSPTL", "experiment": "cell adhesion inhibition, alphaEbeta7 293 cells on coated huE-Cadherin, experiment 2 of 3"}, "[2]": {"target": "alphaEbeta7 on alphaEbeta7-transfected 293 cells (human) (UniProt P38570)", "experiment": "cell adhesion inhibition, alphaEbeta7 293 cells on coated huE-Cadherin, experiment 1 of 3"}, "[3]": {"target": "alphaEbeta7 on alphaEbeta7-transfected 293 cells (human) (UniProt P38570)", "experiment": "cell adhesion inhibition, alphaEbeta7 293 cells on coated huE-Cadherin, experiment 3 of 3"}, "[4]": {"target": "T1, Full length human integrin alpha4beta7 (expressed in 293 cells, purified by Fib504 affinity chromatography) (human, UniProt P13612 34-1032; P26010 20-798)", "T1 construct": "mature; also called immobilized alpha4beta7", "T1 sequence (P13612 34-1032, chain 1 of 2)": "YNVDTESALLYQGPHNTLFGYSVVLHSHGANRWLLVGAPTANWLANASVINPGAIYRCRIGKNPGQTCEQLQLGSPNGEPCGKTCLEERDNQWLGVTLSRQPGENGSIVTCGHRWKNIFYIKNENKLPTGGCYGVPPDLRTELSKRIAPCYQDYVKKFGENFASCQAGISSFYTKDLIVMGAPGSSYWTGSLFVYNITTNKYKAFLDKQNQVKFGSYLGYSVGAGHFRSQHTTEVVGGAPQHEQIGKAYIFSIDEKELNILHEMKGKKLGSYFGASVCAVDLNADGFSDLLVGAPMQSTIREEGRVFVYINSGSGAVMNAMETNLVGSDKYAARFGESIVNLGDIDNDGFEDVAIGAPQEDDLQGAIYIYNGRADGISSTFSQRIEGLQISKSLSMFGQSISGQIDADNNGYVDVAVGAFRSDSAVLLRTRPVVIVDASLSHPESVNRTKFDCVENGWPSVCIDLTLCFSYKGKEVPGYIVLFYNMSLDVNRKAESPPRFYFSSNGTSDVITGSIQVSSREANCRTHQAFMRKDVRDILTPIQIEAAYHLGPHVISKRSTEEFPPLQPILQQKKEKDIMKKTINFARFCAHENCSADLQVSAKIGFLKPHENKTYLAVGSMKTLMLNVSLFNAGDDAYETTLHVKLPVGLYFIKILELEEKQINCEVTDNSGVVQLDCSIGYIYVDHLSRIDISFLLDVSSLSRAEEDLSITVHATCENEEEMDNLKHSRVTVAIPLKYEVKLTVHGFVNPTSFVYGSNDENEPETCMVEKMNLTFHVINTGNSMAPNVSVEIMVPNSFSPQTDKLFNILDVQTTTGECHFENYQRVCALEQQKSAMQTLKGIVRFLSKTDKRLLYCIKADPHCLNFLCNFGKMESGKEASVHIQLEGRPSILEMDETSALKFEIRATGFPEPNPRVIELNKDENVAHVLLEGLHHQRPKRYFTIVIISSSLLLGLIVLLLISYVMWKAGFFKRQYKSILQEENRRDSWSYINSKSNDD", "T1 sequence (P26010 20-798, chain 2 of 2)": "as the sequence (P26010 20-798, chain 2 of 2, further chain) above", "experiment": "BIAcore (column head 'BIAcore Affinity Assay (nM)'); per paragraph 379 the Fab was immobilised on a CM5 chip and human integrin alpha4beta7 injected. The row shows unchanged L1 … and L2 KYASQSIS in the 'Fib504•K RF framework', i.e. the starting Fib504K-RF graft", "description": "(§1) Affinity determinations were performed by surface plasmon resonance using a BIAcore™-3000 (Biacore, Piscataway, N.J.). Humanized Fib504 Fab variants were immobilized in 10 mM acetate pH 4.5 (ranging from 250 to 1500 response units (RU)) on a CM5 sensor chip and 2-fold dilutions of human integrin alpha4beta7 (1.5 to 770 nM) in TBSM containing 2% n-octylglucoside were injected. Each sample was analyzed with 5-minute association and 5 to 60-minute dissociation times. After each injection, the chip was regenerated using three 1-minute injections of 8 M urea. Binding response was corrected by subtracting the RU from a blank flow cell. A 1:1 Languir model of simultaneous fitting of kₒₙ and koff was used for kinetics analysis.\n(§2) Libraries were generated as before using a soft randomization strategy simultaneously at each of the 6 HVRs for the Fib504K-RL and Fib504K-RF grafts and sorted on immobilized alpha4beta7 for 4 rounds of selection as described above. Enrichment was only observed for the library based on the Fib504K-RF graft. […] Most clones contained the change Y32L; in addition position 31 was frequently changed to D, S, P or N (FIG. 1C). In addition to the starting graft, Fib504K-RF, 3 clones were expressed and purified as Fab protein and further analyzed by Biacore as described above. […]"}, "[5]": {"target": "T1, Full length human integrin alpha4beta7 …", "experiment": "phage binding assay (OD): Fab displayed on phage, immobilised alpha4beta7, albumin as control coat"}, "[6]": {"target": "T1, Full length human integrin alpha4beta7 …", "experiment": "BIAcore (column head 'BIAcore Affinity Assay (nM)'); per paragraph 379 the Fab was immobilised on a CM5 chip and human integrin alpha4beta7 injected", "description": "as §1, §2"}, "[7]": {"target": "T1, Full length human integrin alpha4beta7 …", "experiment": "SPR (BIAcore-3000), Fab immobilized, alpha4beta7 injected", "description": "as §1\nLibraries were generated as before using a soft randomization strategy simultaneously at each of the 6 HVRs for the Fib504K-RL and Fib504K-RF grafts and sorted on immobilized alpha4beta7 for 4 rounds of selection as described above. Enrichment was only observed for the library based on the Fib504K-RF graft. […] Most clones contained the change Y32L; in addition position 31 was frequently changed to D, S, P or N (FIG. 1C). In addition to the starting graft, Fib504K-RF, 3 clones were expressed and purified as Fab protein and further analyzed by Biacore as described above. […] The results of the Biacore analysis are shown in Table 3, below, and indicate that selected variation in the HVRs and/or framework regions, disclosed herein, generated antagonist antibodies to alpha4beta7 having improved affinity relative to the starting antibody."}, "[8]": {"target": "T1, Full length human integrin alpha4beta7 …", "experiment": "phage-displayed Fab on immobilized alpha4beta7"}, "[9]": {"target": "T1, Full length human integrin alpha4beta7 …", "experiment": "SPR (BIAcore), Fab; reference Fib504 Fab", "description": "as §1, §2"}},
  "note": "Positions count from the first letter of the chain named. Numbers in names are those of the source.",
  "data": [
    {"molecule": "HP2/1 (anti-alpha4, control) (antibody)", "values": [
      {"measurement": "IC90", "setting": "[1]", "value": "> 100", "unit": "nM"},
      {"measurement": "IC90", "setting": "[2]", "value": "> 100", "unit": "nM"},
      {"measurement": "IC90", "setting": "[3]", "value": "> 100", "unit": "nM"}
    ]},
    {"molecule": "B1", "values": [
      {"measurement": "Kd", "setting": "[4]", "value": 132, "unit": "nM"}
    ]},
    {"molecule": "B2", "values": [
      {"measurement": "binding result", "setting": "[5]", "value": "no binding"}
    ]},
    {"molecule": "B3", "values": [
      {"measurement": "Kd", "setting": "[6]", "value": 23.4, "unit": "nM"},
      {"measurement": "Kd", "setting": "[7]", "value": 23, "unit": "nM"}
    ]},
    {"molecule": "B4", "values": [
      {"measurement": "Kd", "setting": "[7]", "value": 9, "unit": "nM"}
    ]},
    {"molecule": "B5", "values": [
      {"measurement": "binding result", "setting": "[8]", "value": "no binding"}
    ]},
    {"molecule": "B6", "values": [
      {"measurement": "Kd", "setting": "[6]", "value": 3.5, "unit": "nM"},
      {"measurement": "fold tighter binding relative to the starting rat antibody", "setting": "[9]", "value": 3, "unit": "fold"},
      {"measurement": "Kd", "setting": "[7]", "value": 3, "unit": "nM"}
    ]},
    {"molecule": "B7", "values": [
      {"measurement": "binding result", "setting": "[8]", "value": "no binding"}
    ]},
    {"molecule": "B8", "values": [
      {"measurement": "Kd", "setting": "[7]", "value": 11, "unit": "nM"}
    ]}
  ]
}
